Measurements as given in the supplement of paper PMC12042874.
± gives the uncertainty stated by the source.

Assay: amyloid nucleation score (Sup35N fusion, yeast selection) (log enrichment); library NNK3; higher = more nucleation; inactive = no reads after selection
In short: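 The nucleation score is a DiMSum log enrichment of output over input reads, centred on the mode score of non-aggregating sequences. Sequences under 100 input reads were excluded, and reads came from Illumina sequencing of plasmid inserts. Psi-negative yeast expressing Sup35N fused to peptides of 20 random codons were induced with 100 μM copper sulfate for 24 hours and grown 7 days at 30°C on medium lacking adenine and uracil. Random libraries had three technical output replicates.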

Substance	amyloid nucleation score
MYPHAQIEYYAVAHSLAIV	inactive
MCQAIDSNTYWYLAHCGNSS	0.494 ± 0.25
LARMTCYSDCGSNRGLRRVG	inactive
FYVSSTP	inactive
TSRRVCLQ	inactive
WSIRYVLICIGVSKIVCRPL	inactive
GGLQTERFLWRC	0.13 ± 0.63
NIIVWPVCGILLYTHSIS	inactive
ICRLVLSNNF	inactive
SHNRCVEWFKWIF	0.885 ± 0.09
SRCFLKKYCFLMTSILVRGI	inactive
VDWKVAR	inactive
VIRPFVYGDNLVSSTTAMIF	inactive
IKFRDVEGKTLVQKCSQIF	inactive
DHRRLPSCPIFDWFTLNRGP	inactive
ACSVHFFHARW	1.49 ± 0.14
FNVANIRSRFFHFTYSRKVS	inactive
TTRLNFENVNVTLLNYKSMG	1.19 ± 0.069
YNVSINYVGENDGWEACFLS	0.666 ± 0.12
TSPNYTGPMNSCLRAWLWDR	inactive
KCMAI	inactive
FGVSSP	inactive
RMENWLRCL	inactive
ITWWLVIVAARSEGSCSPFQ	0.158 ± 0.27
PRGIDG	inactive
YLSGIPTVVIHVIFGMKDW	inactive
NEIMVTLHNV	inactive

Substance	amyloid nucleation score
LDACILRFARCLEGVDYADK	inactive
RGSPFSWVGPSDRSWSPKFP	inactive
YCTFDVCGFSSASSEGFNTA	0.465 ± 0.32
GPGSYWEMRTN	inactive
FLHILGHVNLFTSLREDLSL	inactive
GSDFTESCVDFFLVVNVDAV	inactive
IYSRVSRLIH	inactive
FCFSGRMTYHFTTWFIKRRS	inactive
YSVPRKSIICIKFDGFWRCV	1.96 ± 0.096
ILTEYLPSTS	inactive
VTMFFLFHMQLYFSSKILGF	inactive
PVVHFLWSLYRNLVCVDGKV	inactive
NRSIIVIWWNSRSSSNSWVG	2.1 ± 0.072
PITDFTSNISNSRDPLQVRG	inactive
VVMKGTRMVKVKERGSGKDY	inactive
LELGIYHLMERGIL	inactive
DYYTVCQAWIYIGFAILKW	inactive
RFQYLNYCMFMVRCGHYDTS	inactive
QVFLRMKRRICVPLFYLACN	0.422 ± 0.21
VREMGLTHFTASLYRGEMPG	inactive
SGLKTFLEMSLHLCVLLARA	inactive
HTGLVILSVISPVTCPYWRK	0.329 ± 0.3
YQLFWRLALFCPVYGCVYLM	-0.027 ± 0.35
SVLICINCNVEHV	2.44 ± 0.083
CPHMKLFRLLI	inactive
LRRDCFLDRSSLRHPVWEWL	inactive
CDSLHNDAVYTSLGAWANHP	inactive

Substance	amyloid nucleation score
LPKCGPRYFDWLNAPEDCMF	inactive
HYHSWFPTYSYSYYV	2.71 ± 0.08
VTLSGCIDLVWVCGVT	2.01 ± 0.099
PCPFILFYSEFTWSRY	inactive
NLRFIRGANSA	inactive
TDRFNAFSWAVASGFVDFDG	inactive
PFENHSYVCSGSRYNGTLWE	inactive
KYVLSKI	inactive
LSYSSRTRCMLLSLYWCSIR	inactive
DLLDHGFEASSKDLEFRDHS	inactive
RRVQKERSLKC	inactive
AGDLNYRSGLSGRNYARGFT	inactive
YFINKMILIDPL	inactive
SKCVGFIMNFLISSDNEDSN	2.27 ± 0.053
HRLTCELFTWMPAEVCVWAD	inactive
VFLVQFFFINFLGNSN	2.45 ± 0.067
RMSLSGRYRHFWSGRCVCRE	inactive
LWYSCLVSRSSIVSHGWVGL	inactive
KLMLHNEYMPGVQLLLNQYK	0.436 ± 0.46
LSIVITRYDMSCSAETMFNL	inactive
TIRYRIQVNSCHESVIAGYT	inactive
WRVHHFGWAGEY	inactive
RPGVC	inactive
FYFKR	inactive
ERFRGMDRHVGVVWYDFV	inactive
IVQAFVSVLSY	inactive
